Data set [1] in a line: Kinetic parameters of LAD from various source organisms. The format is biochemical. The following applies: for Specific activity: purified N. crassa LAD. Here is the method:
Initial rates were determined using a Varian Cary 100 Bio UV-visible spectrophotometer (Varian) at 25° C. in 50 mM Tris (pH 8.0). […] Kinetic measurements with substrate L-arabinitol and cofactor NAD^+ were taken in a 5-by-5 matrix format, with substrate and cofactor concentrations varied from below their Km to 10-fold higher than their Km. The kinetic data were analyzed with a modified version of Cleland's program (Cleland, W. W. (1979) Statistical analysis of enzyme kinetic data, Methods Enzymol 63, 103-138.). Vmax and Km for both L-arabinitol and NAD^+ were obtained by fitting the data to a sequential ordered mechanism with NAD^+ binding first, based on the proposed mechanism for sorbitol dehydrogenase (Lindstad et al. (1992) The kinetic mechanism of sheep liver sorbitol dehydrogenase, Eur J Biochem 210, 641-647.) v=VmaxAB/(KiaKB+KAB+KBA+AB) (EQ. 1)

Data set [2] can be described thus: F59 mutant kinetic analysis, substrate L-arabinitol. It is filed as biochemical. Conditions: 25° C., 50 mM Tris pH 8.0, NAD+ 2 mM. As to the method: (§1) Initial rates were determined using a Varian Cary 100 Bio UV-visible spectrophotometer (Varian) at 25° C. in 50 mM Tris (pH 8.0). […] This is the first reported detection of NADP^+ utilization by LAD, although it is still considered a strongly NAD^+-dependent enzyme. Kinetic measurements with substrate L-arabinitol and cofactor NAD^+ were taken in a 5-by-5 matrix format, with substrate and cofactor concentrations varied from below their Km to 10-fold higher than their Km. The kinetic data were analyzed with a modified version of Cleland's program (Cleland, W. W. (1979) Statistical analysis of enzyme kinetic data, Methods Enzymol 63, 103-138.). Vmax and Km for both L-arabinitol and NAD^+ were obtained by fitting the data to a sequential ordered mechanism with NAD^+ binding first, based on the proposed mechanism for sorbitol dehydrogenase (Lindstad et al. (1992) The kinetic mechanism of sheep liver sorbitol dehydrogenase, Eur J Biochem 210, 641-647.) v=VmaxAB/(KiaKB+KAB+KBA+AB) (EQ. 1)
(§2) Activity assays were run for three mutants of N. crassa LAD (F59A, F59S, and F59Y) to study the effect of mutation of this active site, putative substrate binding residue homologous to tyrosine in other SDHs. […]

Data set [3] is described as follows: F59 mutant kinetic analysis, substrate xylitol. It is filed as biochemical. Conditions: 25° C., 50 mM Tris pH 8.0, NAD+ 2 mM. As to the method: as §1, §2
Data set [4] in a line: F59 mutant kinetic analysis, substrate adonitol. The format is biochemical. The following applies: 25° C., 50 mM Tris pH 8.0, NAD+ 2 mM. As to the method:
as §1, §2

Data set [5] is described as follows: Temperature dependence of LAD activity. The format is biochemical. Here is the method: The optimal temperature of activity was determined by assaying LAD activities at temperatures ranging from 12 to 65° C. […] (FIG. 2A). At higher temperatures, the enzyme inactivates rapidly, and at lowered temperatures, the rate increases with temperature according to the Arrhenius equation. Utilizing the Arrhenius equation to fit the data from 12 to 30° C., the energy of activation for L-arabinitol oxidation by N. crassa LAD was determined to be 49 kJ/mol. […] Thermal inactivation of N. crassa LAD was studied by incubating at 50° C. in 50 mM Tris (pH 8.0), with samples removed at various times and assayed for activity in saturating substrate conditions.

Data set [6] in a line: Thermal inactivation and storage stability of LAD. The format is physicochemical.
Data set [7] in a line: pH rate profile of LAD activity. It is filed as biochemical. Conditions: universal buffer, 2 mM NAD+, 200 mM L-arabinitol. Here is the method:
Activity was measured at pH values between 7.0 and 11.0 under saturating concentrations of NAD+ (2 mM) and L-arabinitol (200 mM) in a universal buffer (50 mM morpholineethanesulfonic acid (MES)/50 mM Tris/50 mM glycine). The pH range for N. crassa LAD activity was large, with >25% of the activity occurring with pH values of 7.0 to 11.0 (FIG. 2C). The pH optimum was around pH 9.5, and >60% of the activity remained in the pH span from 8.0 to 10.5.

A short description of data set [8]: Effect of GST-tag removal on specific activity. Conditions: 4° C. overnight. The format is biochemical. The text has this: N. crassa RNA purification, reverse-transcription PCR, cloning, and N. crassa LAD expression are described in this example. […] The reverse transcription-PCR product was subcloned into pGEX-4T-3 vector (Amersham Biosciences) using EcoRI and NotI restriction sites and was transformed into Escherichia coli BL21(DE3). This construct (pGEX-lad1) encoded N. crassa LAD as an N-terminal glutathione S-transferase (GST)-tagged fusion with a thrombin cleavage site. Cell lysates of isopropyl-β-D-thiogalactopyranoside (IPTG) induced cultures of these cells were prepared, analyzed by SDS-PAGE, and assayed for LAD activities. The construct produced soluble GST-tagged N. crassa LAD at ˜16% of the total soluble cellular proteins (FIG. 1), which was then purified in a single step with a GST-Bind kit (Novagen) according to manufacturer's protocol. […] Protein concentrations were determined by the Bradford method and by using an estimated extinction coefficient (San Diego Supercomputer Center Biology Workbench) of 35.3 mM-1 cm-1 at 280 nm with similar results. The purity of the protein was analyzed by an SDS-PAGE gel stained with Coomassie brilliant blue (FIG. 1). […]
To determine the effect of removal of the GST-tag, the purified LAD was incubated with and without thrombin at 4° C. overnight. […] It was determined that removal of the GST-tag enhanced activity by about 65%. […]

The term Km denotes the substrate concentration at which the rate is half of its maximum.

Some results are limits rather than exact numbers.

For the substance “N. crassa LAD: NAD+-dependent L-arabinitol 4-dehydrogenase from Neurospora crassa, 363 residues, SEQ ID NO: 1, recombinantly expressed in E. coli”, in data set [1] (N. crassa LAD), the kcat is 1,206 min^−1. Further, the Michaelis constant (Km) was determined as 16 mM in data set [1] (N. crassa LAD, read-out: Km,L-arabinitol); 0.174 mM in data set [1] (N. crassa LAD, read-out: Km,NAD+); 35 ± 3 mM in data set [4] (read-out: Km (mean ± SD)). Further, in data set [1] (greater), the “specific activity relative to H. jecorina LAD purified from S. cerevisiae heterologous expression” value was roughly 20 fold. Further, the Specific activity result in data set [1] is on record as “about 31 U/mg”; in data set [1] (listed as N. crassa) it was 31 U/mg. Moreover, the “kcat (mean ± SD)” value in data set [2] was 1,210 ± 30 min^−1; in data set [3], 16.2 ± 0.667 s⁻¹; in data set [4], 1,080 ± 30 min^−1. In data set [5] (Arrhenius fit of data from 12 to 30° C.), the “energy of activation for L-arabinitol oxidation” value turned out to be 11.7 kcal/mol. In addition, the “optimum temperature of activity” value in data set [5] (assayed from 12 to 65° C., 200 mM L-arabinitol, 2 mM NAD+) is 45-55 °C. Besides, in data set [6], the “stability to repeated freezing (in words)” value is “quite stable and does not markedly lose activity when frozen repeatedly”. In data set [6] (45° C., after 4 hr), the activity retained was roughly 60%. The “storage stability (in words)” value in data set [6] (room temperature and 4° C.) was “retained activity at room temperature for longer than one month and at 4 °C for several months”. Further, in data set [7], the “activity at pH values of 7.0 to 11.0” value is recorded as greater than 25%. Further, the “activity remaining in the pH span from 8.0 to 10.5” value in data set [7] is greater than 60%. The substance also yielded a pH optimum in data set [7] of roughly 9.5 pH. In addition, the “increase of specific activity of thrombin-cleaved LAD over GST-tagged LAD” value in data set [8] is “about 65%”.

The record behind these values is patent US8114638B2, “Arabinitol dehydrogenase from Neurospora crassa” (The Board of Trustees of the University of Illinois, priority 2007, dated 2012).
